Experimental data: article PMC6785131

Substrate: N[C@@H](CS)C(=O)O
Test: purified protein
Assay type: biochemical, Salmonella enterica
Conditions: 2 mM ATP, 2 mM PPi, 10 mM MgCl2, 30 mM KCl, 100 mM HEPES pH 7.5, 37 °C, 25 nM enzyme, 50 μM-2 mM Cys

B1: CysRS^chr (Salmonella enterica subsp. enterica serovar Typhimurium str. LT2) (protein)
chain: MLKIFNTLTRQKEEFKPIHAGEVGMYVCGITVYDLCHIGHGRTFVAFDVVARYLRFLGYKLKYVRNITDIDDKIIKRANENGESFVALVDRMIAEMHQDFDALNILRPDSEPRATHHIQEIIELTRTLIEKGHAYVADNGDVMFDVPTDPTYGQLSRQDLEQLQAGARVDVVDVKRNPMDFVLWKMSKEGEPSWPSPWGEGRPGWHIECSAMNCKQLGNHFDIHGGGSDLMFPHHENEIAQSTCAHDGEYVNYWMHSGMVMVDREKMSKSLGNFFTVRDVLKYYDAETVRYFLMSGHYRSQLNYSEENLKQARASLERLYTALRGTDKSAAPAGGEAFEARFVEAMNDDFNTPEAYSVLFDMAREVNRLKGEDMTAANAMASHLRKISGVLGLLEQEPDVFLQSGAQADDGEVAEIEALIQQRLDARKAKDWAAADAARDRLAEMGIILEDGPQGTTWRRK
notes: tag removal not mentioned
Km: 14 ± 3 µM
kcat: 1.1 ± 0.2 s⁻¹
